Test results published in article PMC7835275.

Columns and labels:
[1] = target: His-tagged DVB1^G90E, full length, from E. coli (rice (Oryza sativa L.)); assay: native gel or EMSA; Native-PAGE of the purified His-tagged protein, immunoblot with a His-tag antibody; SDS-PAGE beside it
[2] = target: His-tagged DVB1, full length, from E. coli (rice (Oryza sativa L.)); assay: as above

stoichiometry N [1]	stoichiometry N [2]	Substance
2	–	His-tagged DVB1^G90E, full length, from E. coli (natural protein)
–	2	His-tagged DVB1, full length, from E. coli (natural protein)
